Reference: US20120107324A1 (published 2012)
Numbering of substitutions follows the chain as printed.

B1: 1F2.2B7 (antibody, IgG4, V domains shown)
VH: QVQLVESGGGVVQPGRSLRLSCAASGFTFRSYGMHWVRQAPGKGLEWVAVIWYDGSNKYYADSVKGRFTISRDNSKNTLYLQMNSLRAEDTAMYYCARDGAARRGDYYYYHGMDVWGQGTTVTVSS
VL: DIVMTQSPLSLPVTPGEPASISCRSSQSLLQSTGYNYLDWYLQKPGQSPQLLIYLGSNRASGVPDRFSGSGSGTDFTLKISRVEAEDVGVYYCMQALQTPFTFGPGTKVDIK
notes: also called mAb 1F2.2B7
B2: 3F12.4A1 (antibody, IgG2, V domains shown)
VH: B1 VH with R30S, S56T, R87T, M93V, G100M, H111Y, Q118P
VL: DIVMTQSPLSLPVTPGEPASISCRSSQSLLNGIGYNFLDWYLQKPGQSPQLLIYLGSNRASGVPDRFSGSGSGTDFTLTISRVEAEDVGVYYCMHALQTPFTFGPGTKVDIK
notes: Isotype IgG2/k
B3: 2H12 IgG2 WT (antibody, V domains shown)
VH: B1 VH with R30S, S56T, M93V, H111Y
VL: B2 VL with N31R, I33H, N36S, F37Y, T79K, H95Q
B4: 2G2.2B5 (antibody, IgG4, V domains shown)
VH: B1 VH with R30S, M93V, H111Y
VL: B2 VL with D1E, S26G, N31Q, G32S, I33T, Y35S, F37Y, D39A, T79K, H95Q
notes: Isotype IgG4/k
B5: 2H12 (antibody, IgG4, V domains shown)
VH: B1 VH with R30S, S56T, N77T, M93V, H111Y
VL: B2 VL with N31R, I33H, N36S, F37Y, T79K, H95Q
notes: Identified as an IgG4/k antibody; also called MAb 2H12; 2H12 IgG4
B6: 2H12 Variant 1 (IgG2) (antibody, V domains shown)
VH: B1 VH with R30S, S56T, M93V, H111Y
VL: B2 VL with N31R, I33H, N36S, F37Y, T79K, H95Q
B7: 7B1.3A1 (antibody, IgG4, V domains shown)
VH: B1 VH with I51L, Y59N
VL: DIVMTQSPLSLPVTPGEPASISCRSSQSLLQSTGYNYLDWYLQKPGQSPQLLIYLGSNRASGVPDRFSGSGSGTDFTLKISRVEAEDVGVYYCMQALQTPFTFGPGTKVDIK
notes: also called MAb 7B1.3A1
B8: 4G3.3D11 (antibody, IgG4, V domains shown)
VH: B1 VH with T28I, R30S, S56T, M93V, H111Y
VL: B2 VL with N31H, I33T, N36S, F37S, T79K, Y92F, H95Q
notes: Isotype IgG4/k
B9: IIA1 (antibody, V domains shown)
VH: QVQLKESGPGLVAPSQSLSITCTISGFSLTDYGVHWVRQPPGKGLEWLVVIWSDGSSTYNSALKSRMTIRKDNSKSQVFLIMNSLQTDDSAMYYCARHGTYYGMTTTGDALDYWGQGTSVTVSS
VL: QIVLTQSPAIMSASLGERVTMTCTASSSVSSNYLHWYQQKPGSAPNLWIYSTSNLASGVPARFSGSGSGTSYSLTISSMEAEDAATYYCHQYLRSPPTFGGGTKLEIK

How the values were obtained:
human α5β1 integrin [1] = target: T1, human α5β1 integrin (human, UniProt P08648 42-1049; P05556 21-798); test: cell-based or functional assay
α4β1 integrin [2] = target: T2, α4β1 integrin (UniProt P13612 34-1032; P05556 21-798); test: cell-based or functional assay
β1 chain (integrin β1) [3] = target: T3, β1 chain (integrin β1) (human, UniProt P05556 21-798); test: FACS on HT29 cells (no α5 chain, β1 chain present)
T3 construct: whole, on cells; also called b1; beta1
Protocol: (§1) To confirm the antibodies bind to the α5 chain or to the α5β1 heterodimer, binding to Human colon adenocarcinoma grade II cells (HT29 cells) was assessed by FACS. […] HT-29 cells were suspended in HBSS with 1% BSA and 1 mM final MnCL₂ at a concentration of 6×10⁵ cells/ml. 12.5 uL of the primary antibody was added to 37.5 ul of cells and the plate incubated on ice for 60 minutes. A range of negative controls were included as described previously (indicated as below). In addition as a positive control antibodies to αvβ6 (Mab2077, Chemicon), α5β1 (Mab1909, Chemicon) and αv (L230, Chemicon) were included. 100 uL of HBSS buffer was added to dilute primary antibody, the cells pelleted by centrifuging at 1500 rpm for 3 minutes and resuspended in 50 ul Goat anti-human IgG Fc Cy5 or Goat anti Mouse IgG Fc Cy5 secondary at 2 ug/mL. They were then incubated on ice for a further 7 minutes, and 100 uL of HBSS buffer was added to dilute secondary antibody. Finally cells were pelleted by centrifuging at 1500 rpm for 3 minutes, HBSS Buffer/secondary supernatant removed, washed twice in 100 ul of FACS buffer was added and the cells were resuspended and then read on a FACS Calibur HTS. Samples were analyzed using Cell Quest Pro software. The data is represented in Table 6 and confirm that the antibodies are selective for α5β1.

Macaque α5β1 = target: T4, Macaque α5β1 (Macaque); test: FACS on macaque T-cells; Goat anti Human IgG Fc Cy5 alone 3
T4 construct: whole, on cells; On macaque T-cells (from frozen PBMCs); also called monkey α5β1; monkey integrin
Protocol: To determine whether the antibodies cross reacted to monkey integrin, binding to purified Macaque T-cells was assessed. Macaque PBMCs were previously purified from whole blood, and stored frozen. Macaque PBMCs were suspended in adhesion buffer with HBSS 1% BSA and 1 mM Mn2+ (“FACS buffer”), at a concentration of 4.8×10⁵ live cells per ml. 12.5 uL of the primary antibody was added to 37.5 ul of cells, and incubated at 4° C. for 1 hour. Positive and negative controls were included as indicated. 100 uL of FACs buffer is added to dilute out primary antibody, the cells washed and resuspended in the appropriate secondary at 2 ug/mL (50 uL) with 10 ug/mL 7AAD, and stained on ice for 7 minutes. 100 uL of FACs buffer was added and cells were washed twice in FACS buffer, finally the supernatant removed and the cells were resuspended in 100 uL of buffer.
Samples were read on HTS FACS machine and analyzed using Cell Quest Pro software. The data shown in Table 7 confirm that the antibodies cross react with monkey α5β1.

β1 chain (integrin β1) [4] = target: T3, β1 chain (integrin β1); test: FACS on HT29 cells (α5 null, β1 present); cells alone 2.07, human secondary 2.8
Protocol: as §1

α4β1 integrin [5] = target: T2, α4β1 integrin; test: cell-based or functional assay; remark: listed apart in the source
human α5β1 integrin [6] = target: T1, human α5β1 integrin; test: cell-based or functional assay; remark: listed apart in the source
human α5β1 integrin [7] = target: T1, human α5β1 integrin; test: cell-based or functional assay; remark: listed apart in the source
human α5β1 integrin [8] = target: T1, human α5β1 integrin; test: FACS titration on K562 cells expressing α5β1, 1 mM MgCl2 and 1 mM CaCl2, 4 °C, nonlinear 4-parameter fit; 95% CI ±61.4 pM
Protocol: To assess the affinity of the antibodies for α5β1, a FACS based KD analysis was employed. […] K562 cells expressing α5β1 were resuspended in filtered HBS buffer containing 1 mM MgCl₂ and 1 mM CaCl₂ at a concentration of approximately 2.5-6 million cells/mL. The cells were kept on ice. Serially diluted (2×) mAbs across 11 wells in a 96-well plate. All mAbs were diluted in HBS described above. Additional HBS and cells were added to each well so that the final volume was 300 μL/well and each well contained approximately 140,000-150,000 cells. The final molecular concentration range for each mAb was 2H12: 7.5 nM-[…]. Cells were incubated on a plate shaker for 5 hours at 4° C. and then were spun/washed 3× at 4° C. with HBS. […] The Mean Fluorescence (F) of 7000 “events” was determined using FACS Canto II HTS flow cytometry instrumentation. To calculate affinity, data was fitted nonlinearly to a plot of the Mean Fluorescence as a function of molecular mAb concentration with Scientist 3.0 software using the equation:
In this equation, F=mean fluorescence, LT=total molecular mAb concentration, P′=proportionality constant that relates arbitrary fluorescence units to bound mAb, M=cellular concentration in molarity, n=number of receptors per cell, B=background signal, and KD=equilibrium dissociation constant. […]

T3 sequence (P05556 21-798): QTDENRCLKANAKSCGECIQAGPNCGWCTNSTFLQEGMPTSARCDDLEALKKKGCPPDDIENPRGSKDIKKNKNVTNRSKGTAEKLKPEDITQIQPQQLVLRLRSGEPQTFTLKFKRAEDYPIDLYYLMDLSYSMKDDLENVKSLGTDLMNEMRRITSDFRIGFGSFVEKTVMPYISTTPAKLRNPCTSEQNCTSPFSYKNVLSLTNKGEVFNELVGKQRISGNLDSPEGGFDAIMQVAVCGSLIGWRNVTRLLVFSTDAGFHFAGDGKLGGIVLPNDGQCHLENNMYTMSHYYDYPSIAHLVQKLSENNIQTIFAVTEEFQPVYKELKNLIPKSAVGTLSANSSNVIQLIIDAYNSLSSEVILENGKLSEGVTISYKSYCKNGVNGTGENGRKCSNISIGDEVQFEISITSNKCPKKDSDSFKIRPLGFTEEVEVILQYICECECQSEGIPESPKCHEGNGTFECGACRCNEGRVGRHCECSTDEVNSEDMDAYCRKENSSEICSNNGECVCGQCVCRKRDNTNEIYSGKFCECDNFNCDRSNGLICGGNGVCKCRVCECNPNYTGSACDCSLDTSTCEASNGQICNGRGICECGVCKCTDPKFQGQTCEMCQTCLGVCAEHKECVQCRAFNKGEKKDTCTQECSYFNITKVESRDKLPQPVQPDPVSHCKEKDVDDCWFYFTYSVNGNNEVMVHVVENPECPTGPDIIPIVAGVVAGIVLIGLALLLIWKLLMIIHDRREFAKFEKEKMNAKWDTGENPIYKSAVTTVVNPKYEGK
T2 sequence (P13612 34-1032, chain 1 of 2): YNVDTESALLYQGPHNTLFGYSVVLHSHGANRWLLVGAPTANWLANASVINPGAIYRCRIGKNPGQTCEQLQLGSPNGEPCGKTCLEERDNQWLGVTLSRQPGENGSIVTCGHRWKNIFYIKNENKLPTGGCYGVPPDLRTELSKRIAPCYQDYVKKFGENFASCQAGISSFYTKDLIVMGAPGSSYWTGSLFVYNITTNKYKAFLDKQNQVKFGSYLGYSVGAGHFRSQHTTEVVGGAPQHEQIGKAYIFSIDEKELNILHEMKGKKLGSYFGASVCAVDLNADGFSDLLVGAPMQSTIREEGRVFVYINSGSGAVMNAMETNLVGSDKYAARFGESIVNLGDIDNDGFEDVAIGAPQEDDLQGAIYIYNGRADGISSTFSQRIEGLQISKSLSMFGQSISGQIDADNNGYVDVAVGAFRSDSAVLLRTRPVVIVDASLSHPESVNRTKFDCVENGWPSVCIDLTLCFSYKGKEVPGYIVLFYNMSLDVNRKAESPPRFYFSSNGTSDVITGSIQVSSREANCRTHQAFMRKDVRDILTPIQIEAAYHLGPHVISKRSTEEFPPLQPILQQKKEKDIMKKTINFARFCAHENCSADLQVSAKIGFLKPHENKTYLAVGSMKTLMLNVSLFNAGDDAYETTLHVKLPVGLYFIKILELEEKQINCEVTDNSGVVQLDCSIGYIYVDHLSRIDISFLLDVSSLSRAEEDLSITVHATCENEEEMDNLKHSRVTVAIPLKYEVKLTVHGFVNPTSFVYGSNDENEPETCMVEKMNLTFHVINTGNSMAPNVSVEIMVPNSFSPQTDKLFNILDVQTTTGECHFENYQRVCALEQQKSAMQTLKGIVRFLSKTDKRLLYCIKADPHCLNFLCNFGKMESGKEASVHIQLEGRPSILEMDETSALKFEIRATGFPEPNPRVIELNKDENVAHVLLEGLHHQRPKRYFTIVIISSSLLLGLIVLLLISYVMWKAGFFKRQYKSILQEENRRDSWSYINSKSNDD
T2 sequence (P05556 21-798, chain 2 of 2): as the sequence (P05556 21-798) above
T1 sequence (P08648 42-1049, chain 1 of 2): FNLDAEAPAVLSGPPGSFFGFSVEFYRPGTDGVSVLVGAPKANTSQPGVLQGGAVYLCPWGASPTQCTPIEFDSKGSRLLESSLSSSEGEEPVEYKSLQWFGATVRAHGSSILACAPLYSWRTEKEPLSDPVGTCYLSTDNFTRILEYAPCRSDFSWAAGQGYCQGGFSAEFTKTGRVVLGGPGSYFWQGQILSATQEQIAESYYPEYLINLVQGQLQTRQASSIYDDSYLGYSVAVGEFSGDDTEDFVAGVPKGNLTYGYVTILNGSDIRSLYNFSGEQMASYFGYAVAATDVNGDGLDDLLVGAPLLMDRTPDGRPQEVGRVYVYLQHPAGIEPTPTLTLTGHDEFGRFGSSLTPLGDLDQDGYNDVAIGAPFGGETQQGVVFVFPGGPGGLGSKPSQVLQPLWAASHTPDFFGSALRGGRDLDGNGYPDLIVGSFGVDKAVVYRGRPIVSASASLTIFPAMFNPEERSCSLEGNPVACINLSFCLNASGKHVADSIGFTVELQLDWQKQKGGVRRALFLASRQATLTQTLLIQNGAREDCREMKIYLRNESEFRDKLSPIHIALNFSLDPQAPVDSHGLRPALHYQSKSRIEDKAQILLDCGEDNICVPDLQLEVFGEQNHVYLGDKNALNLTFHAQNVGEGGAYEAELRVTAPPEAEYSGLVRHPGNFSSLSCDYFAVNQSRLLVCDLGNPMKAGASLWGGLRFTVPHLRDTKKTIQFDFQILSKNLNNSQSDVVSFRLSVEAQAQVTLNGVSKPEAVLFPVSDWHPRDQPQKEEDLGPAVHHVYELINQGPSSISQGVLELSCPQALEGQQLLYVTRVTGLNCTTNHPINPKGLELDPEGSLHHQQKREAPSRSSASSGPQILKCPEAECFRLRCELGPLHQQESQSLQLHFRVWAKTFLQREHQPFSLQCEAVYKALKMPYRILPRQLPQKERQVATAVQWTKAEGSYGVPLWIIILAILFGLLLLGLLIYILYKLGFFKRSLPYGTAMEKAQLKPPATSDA
T1 sequence (P05556 21-798, chain 2 of 2): as the sequence (P05556 21-798) above

Binder | % Inhibition of cell adhesion, n = 1 (K562 on full length FN, supernatant 1 in 4) (human α5β1 integrin [1]) | % Inhibition of cell adhesion, n = 2 (K562 on full length FN, supernatant 1 in 4) (human α5β1 integrin [1]) | % Inhibition of cell adhesion, n = 3 (K562 on GST-FNIII(9-10), no pre-incubation, supernatant 1 in 4) (human α5β1 integrin [1]) | % Inhibition of cell adhesion, n = 4 (K562 on GST-FNIII(9-10), supernatant 1 in 10) (human α5β1 integrin [1]) | % Inhibition of cell adhesion, n = 5 (K562 on GST-FNIII(9-10), supernatant 1 in 10) (human α5β1 integrin [1]) | % Inhibition of adhesion, CS1 n = 1 (J6.77 Jurkat cells on GST-CS-1) (α4β1 integrin [2]) | % Inhibition of adhesion, CS1 n = 2 (J6.77 Jurkat cells on GST-CS-1) (α4β1 integrin [2]) | binding result (β1 chain (integrin β1) [3]) | Geo Mean on Macaque T-cells IgG detection (Macaque α5β1) | Binding Geomean (β1 chain (integrin β1) [4]) | Average % inhibition at 5 ug/ml (J6 cell adhesion to GST-CS-1) (α4β1 integrin [5]) | IC50 (read off the curve), adhesion of K562 cells to GST-fibronectin repeats 8-10 (human α5β1 integrin [6]) | IC50 ng/mL (adhesion of K562 cells to GST-Fibronectin type III domains 9-10) (human α5β1 integrin [7]) | Kd (human α5β1 integrin [8])
B1 | 93% | 102% | 100% | 98% | 77% | 29% | 22% | no binding | 9 | 2.75 |  |  |  | 
B2 | 103% | 100% | 97% | 93% | 91% |  |  | no binding | 13 | 3.61 | -2% |  |  | 
B3 |  |  |  |  |  |  |  |  |  |  |  | ~0.2 µg/mL |  | 
B4 | 100% | 102% | 97% | 82% | 78% | 28% | -5% | no binding | 11 | 3.03 | -11% |  |  | 
B5 | 89% | 100% | 96% | 92% | 89% |  |  |  |  | 2.96 |  | ~0.2 µg/mL | 43.2 ng/mL | 0.162 nM
B6 |  |  |  |  |  |  |  |  |  |  |  | ~0.2 µg/mL |  | 
B7 | 98% | 100% | 91% | 93% | 84% | 33% | 12% | no binding | 10 | 3.17 | -7% |  | 49.8 ng/mL | 
B8 | 96% | 99% | 102% | 100% | 81% |  |  | no binding |  | 3.06 |  |  | 60.2 ng/mL | 
B9 |  |  |  |  |  |  |  |  |  |  |  |  | 16.7 ng/mL | 
